Laboratory results taken from patent US20100210473A1.

Columns and labels:
[1] = target: monomeric gp120 (HIV-1) (HIV-1); test: yeast display flow cytometry, gp120 titrated in the absence of sCD4, MFI of antigen binding (sandwich with biotinylated mAb and SA-PE)
[2] = target: gp120 complexed with soluble CD4 (HIV-1); test: yeast display flow cytometry, gp120 titrated in the presence of sCD4, MFI of antigen binding (sandwich with biotinylated mAb and SA-PE)
[3] = target: antigen of Z13e1 scFv ('its antigen')

Substance	Kd [1] [nM]	Kd [2] [nM]	Kd [3] [nM]
scFv X5 displayed on yeast (X5-pPNLS in EBY100)	14.5	1.1	–
Z13e1 scFv displayed on yeast	–	–	50
